Experimental data: patent US20250388669A1 (published 2025)
Numbering of substitutions follows the chain as printed.

B1: Ly1966 (other)
chain 1: QVQLQQSGAELVRPGSSVKISCKASGYAFSSYWMNWVKQRPGQGLEWIGQIWPGDGDTNYNGKFKGKATLTADESSSTAYMQLSSLASEDSAVYFCARRETTTVGRYYYAMDYWGQGTTVTVSSASTKGPSVFPLAPSSKSTSGGTAALGCLVKDYFPEPVTVSWNSGALTSGVHTFPAVLQSSGLYSLSSVVTVPSSSLGTQTYICNVNHKPSNTKVDKKVEPKSCGGGGSGGGGSGGGGSGGGGSEVQLVESGGGLVQPGGSLRLSCAASGFTFSTYAMNWVRQAPGKGLEWVGRIRSKYNNYATYYADSVKGRFTISRDDSKNSLYLQMNSLKTEDTAVYYCVRHGNFGNSYVSWFAYWGQGTLVTVSSGGGGSDKTHTCPPCPAPEAAGPSVFLFPPKPKDTLMISRTPEVTCVVVDVSHEDPEVKFNWYVDGVEVHNAKTKPREEQYNSTYRVVSVLTVLHQDWLNGKEYKCKVSNKALPAPIEKTISKAKGQPREPQVYTLPPSREEMTKNQVSLWCLVKGFYPSDIAVEWESNGQPENNYKTTPPVLDSDGSFFLYSKLTVDKSRWQQGNVFSCSVMHEALHNHYTQKSLSLSPGGGGGSGGGGSGGGGSGGGGSQVQLVQSGAEVKKPGASVKVSCKASGYTFAGFEMHWVRQAPGQGLEWMGAIDPKTGGTDYNQKFKDRVTMTRDTSISTAYMELSRLRSDDTAVYYCARDLGYFDVWGQGTLVTVSS
chain 2: QVQLQQSGAELVRPGSSVKISCKASGYAFSSYWMNWVKQRPGQGLEWIGQIWPGDGDTNYNGKFKGKATLTADESSSTAYMQLSSLASEDSAVYFCARRETTTVGRYYYAMDYWGQGTTVTVSSASTKGPSVFPLAPSSKSTSGGTAALGCLVKDYFPEPVTVSWNSGALTSGVHTFPAVLQSSGLYSLSSVVTVPSSSLGTQTYICNVNHKPSNTKVDKKVEPKSCGGGGSGGGGSGGGGSGGGGSQAVVTQEPSLTVSPGGTVTLTCRSSTGAVTTSNYANWVQQKPGQAPRGLIGGTNKRAPWTPARFSGSLLGGKAALTITGAQAEDEADYYCALWYSNLWVFGGGTKLTVLGGGGSDKTHTCPPCPAPEAAGPSVFLFPPKPKDTLMISRTPEVTCVVVDVSHEDPEVKFNWYVDGVEVHNAKTKPREEQYNSTYRVVSVLTVLHQDWLNGKEYKCKVSNKALPAPIEKTISKAKGQPREPQVYTLPPSREEMTKNQVSLSCAVKGFYPSDIAVEWESNGQPENNYKTTPPVLDSDGSFFLVSKLTVDKSRWQQGNVFSCSVMHEALHNRFTQKSLSLSPGGGGGSGGGGSGGGGSGGGGSDIQMTQSPSSLSASVGDRVTITCRASQDIRSNLNWYQQKPGGAVKLLIYYTSRLHSGVPSRFSGSGSGTDYTLTISSLQPEDFATYFCQQSEKLPRTFGGGTKVEIR
light: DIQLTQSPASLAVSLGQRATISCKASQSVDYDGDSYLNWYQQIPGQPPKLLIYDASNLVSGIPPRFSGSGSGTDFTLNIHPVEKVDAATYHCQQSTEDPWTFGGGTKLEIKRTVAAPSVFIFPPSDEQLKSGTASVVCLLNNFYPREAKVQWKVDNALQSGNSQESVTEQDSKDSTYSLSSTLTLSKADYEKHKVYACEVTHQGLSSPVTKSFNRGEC
notes: Tri-specific antibody: CD19 Fabs, central CD3 Fv, terminal CD137 Fv
B2: Ly1967 (other)
chain 1: B1 chain 1
chain 2: B1 chain 2 with R575H, F576Y
light: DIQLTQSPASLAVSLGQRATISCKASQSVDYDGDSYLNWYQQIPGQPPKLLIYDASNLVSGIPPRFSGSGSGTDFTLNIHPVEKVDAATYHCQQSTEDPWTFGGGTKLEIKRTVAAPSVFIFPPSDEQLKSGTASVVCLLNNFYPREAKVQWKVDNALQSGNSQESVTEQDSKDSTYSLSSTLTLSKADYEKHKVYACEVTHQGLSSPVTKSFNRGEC
notes: as for B1

How the values were obtained:
CD3 = CD3 (human); test: CD3 binding, as described in Example 2 (ELISA or FCM)
CD137 = target: T1, CD137 (human, UniProt Q07011 24-186); test: CD137 binding, FCM or ELISA
T1 construct: In the reporter assay it is whole, on GS-H2-huCD137 cells; also called 4-1BB; huCD137

CD3 (human), sequence (chain, as listed by the source): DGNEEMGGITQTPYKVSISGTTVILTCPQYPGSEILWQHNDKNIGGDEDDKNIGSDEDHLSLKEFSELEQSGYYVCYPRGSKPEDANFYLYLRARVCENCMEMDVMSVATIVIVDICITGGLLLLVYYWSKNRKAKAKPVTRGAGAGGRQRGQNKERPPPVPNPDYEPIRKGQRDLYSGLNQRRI

| Binder | EC50 (CD3) [mg/L] | binding result (CD137) |
| --- | --- | --- |
| B1 | 0.348 | binds |
| B2 | 1.56 | binds |
